Results from the RNAGym collection of RNA variant scans (doi:10.7554/elife.80360).

B1: HDV Ribozyme (parent)
chain: GGCCGGCAUGGUCCCAGCCUCCUCGCUGGCGCCGGCUGGGCAACAUUCCGAGGGGACCGUCCCCUCGGUAAUGGCGAAUGGGACCCA

Variants of: B1
Test: self-cleavage, relative activity (ratio to wild type); higher = more cleavage; co-transcriptional

| Variant | self-cleavage |
| --- | --- |
| GGCCGGCAUGGUCCCAGCCUCCUCGCUUGCGCCGGCUGGGCAACAUUCCGAGGGGCCCGUCCCCUCGGUAAUGGCGAAUGGGACCCA [G28U A56C] | 0 |
| GGCCGGCAUGGUCCCAGCCUCCUCGCUUGCGCCGGCUGGGCAACAUUCCGAGGGGACCGUCCCUUCGGUAAUGGCGAAUGGGACCCA [G28U C64U] | 0.0733 |
| GGCCGGCAUGGUCCCAGCCUCCUCGCUUGCGCCGGCUGGGCAACAUUCCGAGGGGACCGUCCCGUCGGUAAUGGCGAAUGGGACCCA [G28U C64G] | 0.102 |
| GGCCGGCAUGGUCCCAGCCUCCUCGCUUGCGACGGCUGGGCAACAUUCCGAGGGGACCGUCCCCUCGGUAAUGGCGAAUGGGACCCA [G28U C32A] | 0.0496 |
| GGCCGGCAUGGUCCCAGCCUCCUCGCUUGCGCCGGCUGGGCAACAUUCCGAGGGGACCGUCCCCUCGGUAAUGGCGAGUGGGACCCA [G28U A78G] | 0.158 |
| GGCCGGCAUGGUCCCAGCCUCCUCGCUCGCGCCGGCUGGGCAACAUUCGGAGGGGACCGUCCCCUCGGUAAUGGCGAAUGGGACCCA [G28C C49G] | 0.119 |
| GGCCGGCAUGGUCCCAGCCUCCUCGCUCGCGCCGGCUGGGCAACAUUCAGAGGGGACCGUCCCCUCGGUAAUGGCGAAUGGGACCCA [G28C C49A] | 0.166 |
| GGCCGGCAUGGUCCCAGCCUCCUCGCUUGCGCCGGCUGGGCAACAUUCCGAGGGGACCGUCCACUCGGUAAUGGCGAAUGGGACCCA [G28U C63A] | 0.0978 |
| GGCCGGCAUGGUCCCAGCCUCCUCGCUUGCGCCGGCUGGGCAACAUUCCGAGGGGACCGUCCGCUCGGUAAUGGCGAAUGGGACCCA [G28U C63G] | 0.262 |
| GGCCGGCAUGGUCCCAGCCUCCUCGCUCGCGCCGGCUGGGCAACAUUCCAAGGGGACCGUCCCCUCGGUAAUGGCGAAUGGGACCCA [G28C G50A] | 0.151 |
| GGCCGGCAUGGUCCCAGCCUCCUCGCUUGCGCGGGCUGGGCAACAUUCCGAGGGGACCGUCCCCUCGGUAAUGGCGAAUGGGACCCA [G28U C33G] | 0.212 |
| GGCCGGCAUGGUCCCAGCCUCCUCGCUCGCGCCGGCUGGGCAACAUUCCGAGGGCACCGUCCCCUCGGUAAUGGCGAAUGGGACCCA [G28C G55C] | 0.0692 |
| GGCCGGCAUGGUCCCAGCCUCCUCGCUUGCGCCGGCUGGGCAACAUUCCGAGGGCACCGUCCCCUCGGUAAUGGCGAAUGGGACCCA [G28U G55C] | 0.138 |
| GGCCGGCAUGGUCCCAGCCUCCUCGCUUGCGCCGGCUGGGCAACAUUCCGAGGGGACCGUCCCCUCGGUAAUGGCGAAUGGGAGCCA [G28U C84G] | 0.13 |
| GGCCGGCAUGGUCCCAGCCUCCUCGCUCACGCCGGCUGGGCAACAUUCCGAGGGGACCGUCCCCUCGGUAAUGGCGAAUGGGACCCA [G28C G29A] | 0.0692 |
| GGCCGGCAUGGUCCCAGCCUCCUCGCUCGCGCCGGCUGGGCAACAUUACGAGGGGACCGUCCCCUCGGUAAUGGCGAAUGGGACCCA [G28C C48A] | 0.166 |
| GGCCGGCAUGGUCCCAGCCUCCUCGCUCGCGCCGGCUGGGCAACAUUCCGAGGGGACCGUCCCCUCGGUAAUGGCGAAGGGGACCCA [G28C U79G] | 0.246 |
| GGCCGGCAUGGUCCCAGCCUCCUCGCUUGCGCCGGCUGGGCAACAUUCCGAGGGGACCGUUCCCUCGGUAAUGGCGAAUGGGACCCA [G28U C61U] | 0.193 |
| GGCCGGCAUGGUCCCAGCCUCCUCGCUCGCGCCGGCUGGGCAACAUUCCGAGGGGACCCUCCCCUCGGUAAUGGCGAAUGGGACCCA [G28C G59C] | 0.212 |
| GGCCGGCAUGGUCCCAGCCUCCUCGCUUGCGCCGGCUGGGCAACAUUCCGACGGGACCGUCCCCUCGGUAAUGGCGAAUGGGACCCA [G28U G52C] | 0.154 |
| GGCCGGCAUGGUCCCAGCCUCCUCGCUUGCGCCGGCUGGGCAUCAUUCCGAGGGGACCGUCCCCUCGGUAAUGGCGAAUGGGACCCA [G28U A43U] | 0.0615 |
| GGCCGGCAUGGUCCCAGCCUCCUCGCUCGCUCCGGCUGGGCAACAUUCCGAGGGGACCGUCCCCUCGGUAAUGGCGAAUGGGACCCA [G28C G31U] | 0.244 |

| Variant | self-cleavage |
| --- | --- |
| GGCCGGCAUGGUCCCAGCCUCCUCGCUCGCGCCGGCUGGGCAACAUUCCGAGGGGACCGUACCCUCGGUAAUGGCGAAUGGGACCCA [G28C C61A] | 0.0755 |
| GGCCGGCAUGGUCCCAGCCUCCUCGCUCGCGCCGGCUGGGCAACAUUCCGAGGGGACCGUGCCCUCGGUAAUGGCGAAUGGGACCCA [G28C C61G] | 0.158 |
| GGCCGGCAUGGUCCCAGCCUCCUCGCUCGCGCCGGCUGGGCAACAUUCCGAGGGGACCGUCCCCUCGGUAAUGGCGAAUGUGACCCA [G28C G81U] | 0.0639 |
| GGCCGGCAUGGUCCCAGCCUCCUCGCUUGCGCCGGCUGGGCAACAUUCCGAGGGGACCGUCCCCUCGGUAAUGGCGAAUGGGACCCU [G28U A87U] | 0.116 |
| GGCCGGCAUGGUCCCAGCCUCCUCGCUUGCGCCGGCUGGGCAACAUUCCGAGGGGACCGUCCCCUCGGUAAUGGCGAAUGGGACCCG [G28U A87G] | 0.0817 |
| GGCCGGCAUGGUCCCAGCCUCCUCGCUUGCGCCGGCUGGGCAACAUUCCGAGGGGACCGUCCCCUCGGUAAUGGCGAAUGGGCCCCA [G28U A83C] | 0.0811 |
| GGCCGGCAUGGUCCCAGCCUCCUCGCUUUCGCCGGCUGGGCAACAUUCCGAGGGGACCGUCCCCUCGGUAAUGGCGAAUGGGACCCA [G28U G29U] | 0.107 |
| GGCCGGCAUGGUCCCAGCCUCCUCGCUCGCGCCGGCUGUGCAACAUUCCGAGGGGACCGUCCCCUCGGUAAUGGCGAAUGGGACCCA [G28C G39U] | 0.125 |
| GGCCGGCAUGGUCCCAGCCUCCUCGCUCGCGCCGGCUGGGCAACAUUCCGAGGGGACCGUCCCCUCGGUAAUGGCGAAUUGGACCCA [G28C G80U] | 0.123 |
| GGCCGGCAUGGUCCCAGCCUCCUCGCUCGCGCCGGCUGGGCAACAUUCCGAGGGGACCGUCCCCUCGGUAAUGGCGAAUCGGACCCA [G28C G80C] | 0.166 |
| GGCCGGCAUGGUCCCAGCCUCCUCGCUUGCGCCGGCUGGGCAACAUUCCGAGGGGACCGUCCCCUCGGUAAUGGCGAAUGGGACCCA [G28U] | 0.108 |
| GGCCGGCAUGGUCCCAGCCUCCUCGCUUGCGCCGGCUGGGCAACAUUCCGAGGGGACCGUCCCCUCGGUACUGGCGAAUGGGACCCA [G28U A71C] | 0 |
| GGCCGGCAUGGUCCCAGCCUCCUCGCUUGCGCCGGCUGGACAACAUUCCGAGGGGACCGUCCCCUCGGUAAUGGCGAAUGGGACCCA [G28U G40A] | 0.104 |
| GGCCGGCAUGGUCCCAGCCUCCUCGCUCGCGCCGGCUGGGCAACAUUCCGAGGGGAUCGUCCCCUCGGUAAUGGCGAAUGGGACCCA [G28C C57U] | 0.0277 |
| GGCCGGCAUGGUCCCAGCCUCCUCGCUCGCGCCGGCUGGGCAACAUUCCGAGGGGACUGUCCCCUCGGUAAUGGCGAAUGGGACCCA [G28C C58U] | 0.0369 |
| GGCCGGCAUGGUCCCAGCCUCCUCGCUUGCGCCGGCUGGGCAACAUUCCGAGGGGACCGUCCCCUUGGUAAUGGCGAAUGGGACCCA [G28U C66U] | 0.19 |
| GGCCGGCAUGGUCCCAGCCUCCUCGCUUGCUCCGGCUGGGCAACAUUCCGAGGGGACCGUCCCCUCGGUAAUGGCGAAUGGGACCCA [G28U G31U] | 0.0923 |
| GGCCGGCAUGGUCCCAGCCUCCUCGCUCGCGCCGGCUCGGCAACAUUCCGAGGGGACCGUCCCCUCGGUAAUGGCGAAUGGGACCCA [G28C G38C] | 0.0426 |
| GGCCGGCAUGGUCCCAGCCUCCUCGCUCGCGCCGGCUUGGCAACAUUCCGAGGGGACCGUCCCCUCGGUAAUGGCGAAUGGGACCCA [G28C G38U] | 0.162 |
| GGCCGGCAUGGUCCCAGCCUCCUCGCUUGCGCCGGCUGGGCAACAUUCAGAGGGGACCGUCCCCUCGGUAAUGGCGAAUGGGACCCA [G28U C49A] | 0.0297 |
| GGCCGGCAUGGUCCCAGCCUCCUCGCUUGCGCCGGCUGGGCAACAUUCUGAGGGGACCGUCCCCUCGGUAAUGGCGAAUGGGACCCA [G28U C49U] | 0.0639 |
| GGCCGGCAUGGUCCCAGCCUCCUCGCUUGCGCCAGCUGGGCAACAUUCCGAGGGGACCGUCCCCUCGGUAAUGGCGAAUGGGACCCA [G28U G34A] | 0.0496 |

| Variant | self-cleavage |
| --- | --- |
| GGCCGGCAUGGUCCCAGCCUCCUCGCUUGCGCCGGCUGGGCAACAUUCCGGGGGGACCGUCCCCUCGGUAAUGGCGAAUGGGACCCA [G28U A51G] | 0.117 |
| GGCCGGCAUGGUCCCAGCCUCCUCGCUUGCGCCGGCUGGGCAACAUUCCGCGGGGACCGUCCCCUCGGUAAUGGCGAAUGGGACCCA [G28U A51C] | 0.222 |
| GGCCGGCAUGGUCCCAGCCUCCUCGCUUGCGCCGGCUGGGCAACCUUCCGAGGGGACCGUCCCCUCGGUAAUGGCGAAUGGGACCCA [G28U A45C] | 0.148 |
| GGCCGGCAUGGUCCCAGCCUCCUCGCUUGCGCCGGCUUGGCAACAUUCCGAGGGGACCGUCCCCUCGGUAAUGGCGAAUGGGACCCA [G28U G38U] | 0.14 |
| GGCCGGCAUGGUCCCAGCCUCCUCGCUCGCGCCGGCUGGGGAACAUUCCGAGGGGACCGUCCCCUCGGUAAUGGCGAAUGGGACCCA [G28C C41G] | 0 |
| GGCCGGCAUGGUCCCAGCCUCCUCGCUCGCGCCGGCUGGGUAACAUUCCGAGGGGACCGUCCCCUCGGUAAUGGCGAAUGGGACCCA [G28C C41U] | 0.0437 |
| GGCCGGCAUGGUCCCAGCCUCCUCGCUCGCGCCGGCUGGGCAACAUUCCGAGGGGACCGUCCCCCCGGUAAUGGCGAAUGGGACCCA [G28C U65C] | 0.101 |
| GGCCGGCAUGGUCCCAGCCUCCUCGCUCGCGCCGGCUGGGCAACAUUCCGAGGGGACCGUCCGCUCGGUAAUGGCGAAUGGGACCCA [G28C C63G] | 0.101 |
| GGCCGGCAUGGUCCCAGCCUCCUCGCUCGCGCCGGCUGGGCAACAUUCCGAGGGGACCGUCCACUCGGUAAUGGCGAAUGGGACCCA [G28C C63A] | 0.17 |
| GGCCGGCAUGGUCCCAGCCUCCUCGCUCGCGCCGGCUGGGCAACAUUCCGAGGGGACCGUCCCCUCGGUAAUAGCGAAUGGGACCCA [G28C G73A] | 0 |
| GGCCGGCAUGGUCCCAGCCUCCUCGCUUGCGCCGGCUGGGCAACAUUCCGAGGGGACCGUCCCCUCGGUAAUGGCGUAUGGGACCCA [G28U A77U] | 0.0707 |
| GGCCGGCAUGGUCCCAGCCUCCUCGCUUGCGCCGGCUGGGCAACAUUGCGAGGGGACCGUCCCCUCGGUAAUGGCGAAUGGGACCCA [G28U C48G] | 0.161 |
| GGCCGGCAUGGUCCCAGCCUCCUCGCUCGCGCCGGCUGGGCAACAUUCCGAGGGGACCGACCCCUCGGUAAUGGCGAAUGGGACCCA [G28C U60A] | 0.104 |
| GGCCGGCAUGGUCCCAGCCUCCUCGCUCGCGCCGGCUGGGCAACAUUCCGAGGGGACCGGCCCCUCGGUAAUGGCGAAUGGGACCCA [G28C U60G] | 0 |
| GGCCGGCAUGGUCCCAGCCUCCUCGCUCGCGCCGGCUGGGCAAUAUUCCGAGGGGACCGUCCCCUCGGUAAUGGCGAAUGGGACCCA [G28C C44U] | 0 |
| GGCCGGCAUGGUCCCAGCCUCCUCGCUCGCGCCGGCUGGGCAAAAUUCCGAGGGGACCGUCCCCUCGGUAAUGGCGAAUGGGACCCA [G28C C44A] | 0.0475 |
| GGCCGGCAUGGUCCCAGCCUCCUCGCUCGCGCCGGCUGGUCAACAUUCCGAGGGGACCGUCCCCUCGGUAAUGGCGAAUGGGACCCA [G28C G40U] | 0.032 |
| GGCCGGCAUGGUCCCAGCCUCCUCGCUCGCGCCGGCUGGACAACAUUCCGAGGGGACCGUCCCCUCGGUAAUGGCGAAUGGGACCCA [G28C G40A] | 0.148 |
| GGCCGGCAUGGUCCCAGCCUCCUCGCUUGCGCCGGCUGGGCAACAUUCCGAGGGGACCGUCCCCUCGGUAAUGGCGAAUGGGACACA [G28U C85A] | 0.203 |
| GGCCGGCAUGGUCCCAGCCUCCUCGCUCGCGCCGGCUGGGCAACAUUCCGAGGGGACCGUCCCCUCGGUAAUGGCAAAUGGGACCCA [G28C G76A] | 0.106 |
